Source: the supplement of paper PMC7125110
± gives the standard error. Fewer inactive variants are shown than the library holds.

B1: glmS ribozyme (parent)
chain: AUAAAAGCGCCAGAACUACAGAAAUGUAGUUGACGAGGAGGAGGUUUAUCGAAUUUUCGGCGGAUGCCUCCAAA

Variants of: B1
Assay: self-cleavage kobs at 10000 uM GlcN6P; higher = faster cleavage; RNA array
Details: with glucosamine-6-phosphate
Summary of the method: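 Barcoded ribozyme variants were transcribed in situ on sequenced MiSeq chips by E. coli RNA polymerase. At 37 °C, a hybridised Cy3 probe tracked them while glucosamine-6-phosphate (40 μM to 10 mM) in HEPES/KCl/Mg(OAc)2 buffer flowed in and tiles were imaged over ~14 h. Per-tile medians of signals normalised to baseline and to non-cleaving reference variants were fit to one- or two-exponential decays, giving kobs. kcat and KM came from weighted Michaelis–Menten fits across concentrations.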

First: AUAAAAGCGACAGAACUACAGAAAUGUAGUUGACGAGGAGGAGGUUUAUCGAAUUUUCGGCGUAUGCCUCUAAA [C10A G63U C71U]
Second: AUAAAAGCGCCCGAACUACAGAAAUGUAGUUGACGAGGAGGAGGUUUAUCGAAUUUUCGGCGGAUCCCUCCAAA [A12C G66C]
The “self-cleavage kobs at 10000 uM GlcN6P” value of the first is lower: < 1e-05 s⁻¹ for the first, 0.000754 ± 0.00033 s⁻¹ for the second.

Going from AUAAAUGCGCCAGACCUACAGAAAUGUAGUUGACGAGGAGGAGGUUUCUCGAAUUUUCGGCGGUUGCCUCCAAA [A6U A15C A48C A64U] to AUAAAAGCGCCAGAGCUACAGAAAUGUAGUUGACGAGGAGGAGGUUUAUCGGAUUUUCGGCGGAUACUUCCAAA [A15G A52G G66A C68U], the “self-cleavage kobs at 10000 uM GlcN6P” value rises from < 1e-05 s⁻¹ to 0.000149 ± 2.8e-05 s⁻¹.

AUAAAAGCGCCAGCACUACAGAAAUGUAGUUGACGAGGAGGAGGUUUAUGGAAUUUUCGGCUGAUGGCUCCAAA [A14C C50G G62U C67G] and AUAAAAGCGCCAGGGCUACAGAAAUGUAGUUGUCGAGGAGGAGGUUUAUCGAAUUUUCGGCGGAUGCCUCCAAA [A14G A15G A33U] are within error of each other in “self-cleavage kobs at 10000 uM GlcN6P” value: 6.05e-05 ± 1.8e-05 s⁻¹ for the first, 8.09e-05 ± 1.9e-05 s⁻¹ for the second.

Going from AUAAAAGCGCCAGAGCUACAGAAAUGUAGUUGACGAGGAGGAGGUUUAUCGAAUGUUAGGCGGAUGCCUCCAAA [A15G U55G C58A] to AUAAAAGUGCCAUAUUUACAGAAAUGUAGUUCACGAGGAGGAGGUUUUUCGAAUUUUCGGCGGAUGCCUCCAAA [C8U G13U A15U C16U G32C A48U], the “self-cleavage kobs at 10000 uM GlcN6P” value falls from 0.000435 ± 8.3e-05 s⁻¹ to < 1e-05 s⁻¹.

Compared with AUAAAAGCGCCAGAACUACAGAAAUGUACUUGACGAGGAGGAGGUUUAUGGAAUUUUCGGGGGAUGCCUCUAAA [G29C C50G C61G C71U], AUAAAAGCGCCAGAUCUACAGAAAUGUAGGUGACGAGGAGGAGGUUUAUCGAAUUUUCGCCGGAUGCCUCCAAA [A15U U30G G60C] is lower in “self-cleavage kobs at 10000 uM GlcN6P” value: 8.93e-05 ± 2.1e-05 s⁻¹ for the first, < 1e-05 s⁻¹ for the second.

First: AUAAAAGCGCCAGGACUACAGAAAUGUAGUUGACGAGGACUAGGUUUAUCGAAUUUUCGGCGGAUGCCUCCAAA [A14G G40C G41U]
Second: AUAAAAGCGCUGGGACUACAGAAAUUUAGUUGACGAGGAGGAGGUUUAUCGAAUUUUCGGCGGAUGCCUCCAAA [C11U A12G A14G G26U]
The “self-cleavage kobs at 10000 uM GlcN6P” value of the first is 5.6-fold lower: 0.000186 ± 4e-05 s⁻¹ for the first, 0.00104 ± 0.00024 s⁻¹ for the second.

Going from AUAAAAGCGCCAGAACUACAGAAAUGUAGUUGACGACGAGGAGGUUUAUCGAAGUUUCGGCGGAUGCCUCCAAA [G37C U54G] to AUAAAAGCGCCAGAACUACAGAAAUGUAGUUGACGAGGAGGAGAUUUAUCGAAUUUUCGGCGGAGGUCUCCAAA [G44A U65G C67U], the “self-cleavage kobs at 10000 uM GlcN6P” value rises from 3.98e-05 ± 8.6e-06 s⁻¹ to 0.00292 ± 0.00045 s⁻¹ (73-fold).

Going from AUAAAAGCGCCAGAUCUACAGAAAUGUACUUGACGAGGAGGAGGUUUAUCGAAUUUUAGGCGGAUGCCUCCAAA [A15U G29C C58A] to AUAAAAGCGCCAGAACUACAGAAAUGUAUUUGACGAGGAGGAGGUUUAUCGACUUUUCGGCGGAUACCUCCAAA [G29U A53C G66A], the “self-cleavage kobs at 10000 uM GlcN6P” value rises from 6.87e-05 ± 2.7e-05 s⁻¹ to 0.000258 ± 4.6e-05 s⁻¹ (3.8-fold).

First: AUAAAAGCGCCGGAACUACAGAAAUGUAGGUGACGAGGAGGAGGUUUAUCGAAUGUUCGGCGGAUGCCUCCAAA [A12G U30G U55G]
Second: AUAAAAGCGCCAGGACUACAGAAAUGUAGUUGACGAGGAGGAGGUUUAUCGAAUUCUCGGCGGAUGCCCCCAAA [A14G U56C U69C]
The “self-cleavage kobs at 10000 uM GlcN6P” value of the first is 6.8-fold lower: 5.43e-05 ± 1.3e-05 s⁻¹ for the first, 0.000368 ± 9.1e-05 s⁻¹ for the second.

AUAAAAGCGCUAGAACUACAGAAAUGUAGUUGACGCGGAGGAUGUUUAUCGAAUUUUCGGCGGAUGCCUCCAAA [C11U A36C G43U] and AUAAAAGCGCGAGAGCUACAGAAAUGUAGUUGACGAGGACGAGGUAUAUCGAAUUUUCGGCAGUUGCCUCCAAA [C11G A15G G40C U46A G62A A64U] cannot be ordered by “self-cleavage kobs at 10000 uM GlcN6P” value: < 1e-05 s⁻¹ for the first, < 1e-05 s⁻¹ for the second.

AUAAAAGCGCCAGAACUACAGAAAUGUAGUUGACGAGGGGGAGGUUUAUCGAAUUUUCGGAUGAUGCCUCCAAA [A39G C61A G62U] and AUAAAAGCCCCAGAACUACAGAAAUGUAGUUGACGAGGAGGAGGUUUAUUGAAUUUUCGGCGGUUGCCUCCAAA [G9C C50U A64U] cannot be ordered by “self-cleavage kobs at 10000 uM GlcN6P” value: < 1e-05 s⁻¹ for the first, < 1e-05 s⁻¹ for the second.

AUAAAAGCGCCAGAACUACAGAAAUGUAGUUAACGAGGAUGAGGUUUAUCGAAUUUUCGGCGGAUGUCUCCAAA [G32A G40U C67U] and AUAAAAGCGCCAGAACUACAGAAAUGUAGUUGACCAGGAGGAGGUUAAUCGAAUUUUCGGCGGAUUCCUCCAAA [G35C U47A G66U] cannot be ordered by “self-cleavage kobs at 10000 uM GlcN6P” value: < 1e-05 s⁻¹ for the first, < 1e-05 s⁻¹ for the second.

First: AUAAAAGCGCCAGAACUACAGAAAUGUAAUUGACGAGGAGGAGGUUUAUCGAAUUGUCGGCGGAUGACUCCAAA [G29A U56G C67A]
Second: AUAAAAGCGCCAGAACUACAGAAAUGUAGUUUACGAUGAGGAAGUUUAUCGGAUUUUCGGCGGAUGUCUCCAAA [G32U G37U G43A A52G C67U]
The “self-cleavage kobs at 10000 uM GlcN6P” value of the first is higher: 0.000277 ± 5.7e-05 s⁻¹ for the first, < 1e-05 s⁻¹ for the second.

AUAAAAUCGCCACAACUACAGAAAUGUAGUUAACGAGGAGGAGGUUUAUCGAAUUUUCGGCGGAUGCCUCCAAA [G7U G13C G32A] and AUAAAAGCGCCUGAACUACAGAAAUGUAGUUGCCGAGGAGGAGGUUCAUCGAAUUUUCGGCGGAUGGCUCCAAA [A12U A33C U47C C67G] cannot be ordered by “self-cleavage kobs at 10000 uM GlcN6P” value: < 1e-05 s⁻¹ for the first, < 1e-05 s⁻¹ for the second.

AUAAAAGCGCCGGAACUACAGAAAUGUAGAUGAUGAGGAGGAGGGUUAUCGAAUUUUCGGCGGAUGACUCCAAA [A12G U30A C34U U45G C67A] and AUAAAAGCGCCAGAACUACAGAAAUGUAGUUAACGAGGAGGAGGGUUAGCGAAUUUUCGGCGGAUGCCUCGAAA [G32A U45G U49G C71G] cannot be ordered by “self-cleavage kobs at 10000 uM GlcN6P” value: < 1e-05 s⁻¹ for the first, < 1e-05 s⁻¹ for the second.

AUAAAAUCGCCAGAAAUACAGAAAUGUAGUUGACGAGGAGGAGGUUUAUCGAAUUUUCGGCAGAUGCCUCCAAA [G7U C16A G62A] and AUAAAAGCGCCAGAACUACAGAAAUGUAGUUGACGAGGAGGAGGUUUAUAGAAUGUCCGGCGGAUGCCUCCAAA [C50A U55G U57C] cannot be ordered by “self-cleavage kobs at 10000 uM GlcN6P” value: < 1e-05 s⁻¹ for the first, < 1e-05 s⁻¹ for the second.

AUAAAAGCGCCAGAGCUACAGAAAUGUAGUCGACGAGCAGGAGGUUUAUCGAAUUUUCGGCGAAUGCCUCCAAA [A15G U31C G38C G63A] and AUAAAAGCGCCAGAACUACAGAAAUGUAGUUGCCGAGGAGGAGGUUUAUCGAAUUUUCGGCGGAUGCGUCCAAA [A33C C68G] cannot be ordered by “self-cleavage kobs at 10000 uM GlcN6P” value: < 1e-05 s⁻¹ for the first, < 1e-05 s⁻¹ for the second.

First: AUAAAAGCGCCAGAAUUACAGAAAUGUAGUUGACGAGGAGGAGGUUUAUCGAAUGUUCGGCGGAUGCGUCCAAA [C16U U55G C68G]
Second: AUAAAAGCGACAGAACUACAGAAAUGUAGUUGACGCGGAGGAGGUUUAUUGAAUUUUCCGCGGAUGCCUCCAAA [C10A A36C C50U G59C]
The “self-cleavage kobs at 10000 uM GlcN6P” value of the first is higher: 5.93e-05 ± 1.5e-05 s⁻¹ for the first, < 1e-05 s⁻¹ for the second.

AUAAAAGCGCCAGUACUACAGAAAUGUAGUUGACGAGGCGGAGGUUUAUCGAAUUUUCGGCGGAUUCCUCCAAA [A14U A39C G66U] was tested, and the “self-cleavage kobs at 10000 uM GlcN6P” value was 0.000116 ± 2.2e-05 s⁻¹.
